{"source": "the supplement of paper PMC9112550", "about": "“Optimization of the antimicrobial peptide Bac7 by deep mutational scanning” (BMC Biology, 2022);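 also: peptides expressed intracellularly from a pBAD plasmid library in pooled LB shake-flask culture, induced with 0.3% L-arabinose, DNA abundance read by NGS, three biological replicates, DESeq2 with apeglm shrinkage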"}
{"tested_on": "Escherichia coli TOP10", "assay": "shrunken log2 fold change of peptide-encoding DNA abundance (4.5 h post-induction vs induction); higher = less antimicrobial activity (less host growth inhibition)", "conditions": "time post-induction: 4.5 h; library: site-saturation at positions 5, 18, 19, 20"}
{"sequence": "RRIRVRPPRLPRPRPRPMNFPRP", "shrunken log2 fold change": -0.349}
{"sequence": "RRIRDRPPRLPRPRPRPQPSPRP", "shrunken log2 fold change": 0.234}
{"sequence": "RRIRCRPPRLPRPRPRPLPLPRP", "shrunken log2 fold change": -0.0103}
{"sequence": "RRIRPRPPRLPRPRPRPPKGPRP", "shrunken log2 fold change": 0.308}
{"sequence": "RRIRPRPPRLPRPRPRPAISPRP", "shrunken log2 fold change": -0.103}
{"sequence": "RRIRLRPPRLPRPRPRPYIQPRP", "shrunken log2 fold change": -0.337}
{"sequence": "RRIRCRPPRLPRPRPRPKYWPRP", "shrunken log2 fold change": 0.22}
{"sequence": "RRIRQRPPRLPRPRPRPVQTPRP", "shrunken log2 fold change": -0.0915}
{"sequence": "RRIRHRPPRLPRPRPRPMIYPRP", "shrunken log2 fold change": -0.105}
{"sequence": "RRIRARPPRLPRPRPRPDTCPRP", "shrunken log2 fold change": -0.162}
{"sequence": "RRIRPRPPRLPRPRPRPSMPPRP", "shrunken log2 fold change": -0.208}
{"sequence": "RRIRSRPPRLPRPRPRPYIKPRP", "shrunken log2 fold change": -0.234}
{"sequence": "RRIRNRPPRLPRPRPRPWTEPRP", "shrunken log2 fold change": -0.249}
{"sequence": "RRIRMRPPRLPRPRPRPSYFPRP", "shrunken log2 fold change": -0.293}
{"sequence": "RRIRRRPPRLPRPRPRPAAMPRP", "shrunken log2 fold change": 0.516}
{"sequence": "RRIRWRPPRLPRPRPRPLVLPRP", "shrunken log2 fold change": 0.0697}
{"sequence": "RRIRPRPPRLPRPRPRPTLVPRP", "shrunken log2 fold change": 0.114}
{"sequence": "RRIRNRPPRLPRPRPRPEYSPRP", "shrunken log2 fold change": -0.272}
{"sequence": "RRIRMRPPRLPRPRPRPVWGPRP", "shrunken log2 fold change": 0.185}
{"sequence": "RRIRLRPPRLPRPRPRPFFTPRP", "shrunken log2 fold change": -0.144}
{"sequence": "RRIRHRPPRLPRPRPRPHLDPRP", "shrunken log2 fold change": -0.214}
{"sequence": "RRIRQRPPRLPRPRPRPAPMPRP", "shrunken log2 fold change": 0.538}
{"sequence": "RRIRDRPPRLPRPRPRPTNAPRP", "shrunken log2 fold change": 0.182}
{"sequence": "RRIRSRPPRLPRPRPRPCYEPRP", "shrunken log2 fold change": -0.167}
{"sequence": "RRIRGRPPRLPRPRPRPQASPRP", "shrunken log2 fold change": 1.03}
{"sequence": "RRIRKRPPRLPRPRPRPNEAPRP", "shrunken log2 fold change": -0.00686}
{"sequence": "RRIRPRPPRLPRPRPRPDAQPRP", "shrunken log2 fold change": 0.271}
{"sequence": "RRIRARPPRLPRPRPRPNEEPRP", "shrunken log2 fold change": 0.276}
{"sequence": "RRIRKRPPRLPRPRPRPFNWPRP", "shrunken log2 fold change": 0.00115}
{"sequence": "RRIRKRPPRLPRPRPRPKDDPRP", "shrunken log2 fold change": 0.0898}
{"sequence": "RRIRLRPPRLPRPRPRPDPAPRP", "shrunken log2 fold change": 0.752}
{"sequence": "RRIRGRPPRLPRPRPRPRNWPRP", "shrunken log2 fold change": 1.35}
{"sequence": "RRIRCRPPRLPRPRPRPMVKPRP", "shrunken log2 fold change": -0.228}
{"sequence": "RRIRNRPPRLPRPRPRPIAGPRP", "shrunken log2 fold change": -0.0235}
{"sequence": "RRIRMRPPRLPRPRPRPLGRPRP", "shrunken log2 fold change": 0.723}
{"sequence": "RRIRVRPPRLPRPRPRPVAWPRP", "shrunken log2 fold change": 0.421}
{"sequence": "RRIRLRPPRLPRPRPRPVYCPRP", "shrunken log2 fold change": -0.303}
{"sequence": "RRIRPRPPRLPRPRPRPASIPRP", "shrunken log2 fold change": -0.228}
{"sequence": "RRIRPRPPRLPRPRPRPRRCPRP", "shrunken log2 fold change": 0.388}
{"sequence": "RRIRCRPPRLPRPRPRPDQEPRP", "shrunken log2 fold change": 0.0455}
{"sequence": "RRIRIRPPRLPRPRPRPREEPRP", "shrunken log2 fold change": 0.0171}
{"sequence": "RRIRERPPRLPRPRPRPVHPPRP", "shrunken log2 fold change": -0.00739}
{"sequence": "RRIRVRPPRLPRPRPRPLECPRP", "shrunken log2 fold change": -0.041}
{"sequence": "RRIRNRPPRLPRPRPRPKWTPRP", "shrunken log2 fold change": -0.0342}
{"sequence": "RRIRTRPPRLPRPRPRPCFCPRP", "shrunken log2 fold change": -0.259}
{"sequence": "RRIRFRPPRLPRPRPRPWWSPRP", "shrunken log2 fold change": -0.18}
{"sequence": "RRIRKRPPRLPRPRPRPYLAPRP", "shrunken log2 fold change": -0.295}
{"sequence": "RRIRARPPRLPRPRPRPEIQPRP", "shrunken log2 fold change": 1.71}
{"sequence": "RRIRGRPPRLPRPRPRPKNLPRP", "shrunken log2 fold change": 0.121}
{"sequence": "RRIRGRPPRLPRPRPRPFCVPRP", "shrunken log2 fold change": 0.392}
{"sequence": "RRIRGRPPRLPRPRPRPKLEPRP", "shrunken log2 fold change": 0.507}
{"sequence": "RRIRHRPPRLPRPRPRPDTLPRP", "shrunken log2 fold change": 0.00779}
{"sequence": "RRIRRRPPRLPRPRPRPSQMPRP", "shrunken log2 fold change": 0.0447}
{"sequence": "RRIRLRPPRLPRPRPRPYNTPRP", "shrunken log2 fold change": -0.806}
{"sequence": "RRIRWRPPRLPRPRPRPPCYPRP", "shrunken log2 fold change": -0.436}
{"sequence": "RRIRHRPPRLPRPRPRPYVIPRP", "shrunken log2 fold change": -0.00839}
{"sequence": "RRIRTRPPRLPRPRPRPGIMPRP", "shrunken log2 fold change": -0.452}
{"sequence": "RRIRLRPPRLPRPRPRPLLHPRP", "shrunken log2 fold change": -0.0703}
{"sequence": "RRIRQRPPRLPRPRPRPGDFPRP", "shrunken log2 fold change": -0.179}
{"sequence": "RRIRKRPPRLPRPRPRPYGTPRP", "shrunken log2 fold change": -0.272}
{"sequence": "RRIRYRPPRLPRPRPRPYMSPRP", "shrunken log2 fold change": -0.00192}
{"sequence": "RRIRRRPPRLPRPRPRPIQDPRP", "shrunken log2 fold change": 2.65}
{"sequence": "RRIRSRPPRLPRPRPRPPSQPRP", "shrunken log2 fold change": 0.235}
{"sequence": "RRIRARPPRLPRPRPRPQHGPRP", "shrunken log2 fold change": -0.265}
{"sequence": "RRIRVRPPRLPRPRPRPTFQPRP", "shrunken log2 fold change": -0.0952}
{"sequence": "RRIRIRPPRLPRPRPRPPPKPRP", "shrunken log2 fold change": 0.46}
{"sequence": "RRIRHRPPRLPRPRPRPNKWPRP", "shrunken log2 fold change": -0.0964}
{"sequence": "RRIRGRPPRLPRPRPRPQVRPRP", "shrunken log2 fold change": 0.713}
{"sequence": "RRIRQRPPRLPRPRPRPDKFPRP", "shrunken log2 fold change": -0.513}
{"sequence": "RRIRKRPPRLPRPRPRPSFWPRP", "shrunken log2 fold change": 0.299}
{"sequence": "RRIRGRPPRLPRPRPRPMACPRP", "shrunken log2 fold change": -0.119}
{"sequence": "RRIRMRPPRLPRPRPRPKRWPRP", "shrunken log2 fold change": 1.51}
{"sequence": "RRIRMRPPRLPRPRPRPKVDPRP", "shrunken log2 fold change": -0.0311}
{"sequence": "RRIRARPPRLPRPRPRPETMPRP", "shrunken log2 fold change": 0.0902}
{"sequence": "RRIRQRPPRLPRPRPRPEDWPRP", "shrunken log2 fold change": -0.106}
